According to publication PMC9482650, “Quantitative fragmentomics allow affinity mapping of interactomes” (Nature Communications, 2022):

Assays:
Experiment in all cases: holdup assay
Set-up in all cases: key: below the threshold = too weak to quantify, mostly under pKd 3.1 to 4
Conditions in all cases: plain residues with an end cap or a label only (N-terminal biotin on a linker: ttds)
[1] = biological target: CNKSR3, Q6P9H4
[2] = biological target: IL16_2, Q14005
[3] = biological target: T1, INTU, Q9ULD6
T1 sequence (Q9ULD6 180-273, limits assumed, looked up): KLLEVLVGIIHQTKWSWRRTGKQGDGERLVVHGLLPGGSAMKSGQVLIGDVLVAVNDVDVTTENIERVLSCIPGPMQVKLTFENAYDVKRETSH

[4] = biological target: LIMK1, P53667
Chain of LIMK1, P53667 (P53667 155-268): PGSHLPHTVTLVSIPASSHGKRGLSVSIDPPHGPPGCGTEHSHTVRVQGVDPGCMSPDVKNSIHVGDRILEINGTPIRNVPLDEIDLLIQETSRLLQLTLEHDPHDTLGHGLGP

[5] = biological target: MAGI1_4, Q96QZ7
Chain of MAGI1_4, Q96QZ7 (Q96QZ7 other isoform, or with tags, fused parts or gaps): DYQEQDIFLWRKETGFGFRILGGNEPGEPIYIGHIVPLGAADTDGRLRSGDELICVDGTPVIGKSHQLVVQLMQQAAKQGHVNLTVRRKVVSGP

[6] = biological target: T2, MAGI2_1, Q86UL8
T2 sequence (Q86UL8 12-111, limits assumed, looked up): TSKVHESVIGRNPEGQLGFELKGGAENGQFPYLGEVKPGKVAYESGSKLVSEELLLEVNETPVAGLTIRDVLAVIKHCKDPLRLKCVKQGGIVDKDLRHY

[7] = biological target: MAGI3_5, Q5TCQ9
Chain of MAGI3_5, Q5TCQ9 (Q5TCQ9 847-941): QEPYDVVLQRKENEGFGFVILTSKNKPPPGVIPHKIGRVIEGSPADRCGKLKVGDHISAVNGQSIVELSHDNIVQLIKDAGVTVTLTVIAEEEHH

[8] = biological target: T3, NHERF1_2, O14745
T3 sequence (O14745 149-244, limits assumed, looked up): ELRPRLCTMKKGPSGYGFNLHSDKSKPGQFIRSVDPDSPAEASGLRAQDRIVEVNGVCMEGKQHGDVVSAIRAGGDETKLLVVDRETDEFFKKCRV

[9] = biological target: NHERF2_1, Q15599
Chain of NHERF2_1, Q15599 (Q15599 9-91): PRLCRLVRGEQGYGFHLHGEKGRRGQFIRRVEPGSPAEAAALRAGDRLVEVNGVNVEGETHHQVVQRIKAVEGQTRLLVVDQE

[10] = biological target: PARD3B_3, Q8TEW8
Chain of PARD3B_3, Q8TEW8 (Q8TEW8 490-594): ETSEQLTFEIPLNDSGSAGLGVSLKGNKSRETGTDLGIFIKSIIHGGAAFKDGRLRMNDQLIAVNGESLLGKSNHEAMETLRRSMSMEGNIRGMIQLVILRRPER

[11] = biological target: T4, PARD6B, Q9BYG5
T4 sequence (Q9BYG5 152-260, limits assumed, looked up): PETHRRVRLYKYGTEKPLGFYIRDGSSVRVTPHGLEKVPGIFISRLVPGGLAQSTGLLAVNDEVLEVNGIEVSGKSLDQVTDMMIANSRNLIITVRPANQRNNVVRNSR

[12] = biological target: T5, PDZD11, Q5EBL8
T5 sequence (Q5EBL8 42-139, limits assumed, looked up): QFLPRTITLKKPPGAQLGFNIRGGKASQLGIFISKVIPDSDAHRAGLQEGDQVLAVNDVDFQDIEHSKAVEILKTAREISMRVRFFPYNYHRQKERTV

[13] = biological target: T6, PDZD2_4, O15018
T6 sequence (O15018 723-823, limits assumed, looked up): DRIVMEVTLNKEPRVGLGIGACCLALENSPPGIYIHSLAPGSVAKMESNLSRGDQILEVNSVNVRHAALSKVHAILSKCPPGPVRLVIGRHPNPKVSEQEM

[14] = biological target: T7, PDZD4, Q76G19
T7 sequence (Q76G19 125-224, limits assumed, looked up): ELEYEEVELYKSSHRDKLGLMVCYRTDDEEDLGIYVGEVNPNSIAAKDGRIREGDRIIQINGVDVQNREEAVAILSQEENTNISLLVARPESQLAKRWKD

[15] = biological target: T8, PDZD7_1, Q9H5P4
T8 sequence (Q9H5P4 81-178, limits assumed, looked up): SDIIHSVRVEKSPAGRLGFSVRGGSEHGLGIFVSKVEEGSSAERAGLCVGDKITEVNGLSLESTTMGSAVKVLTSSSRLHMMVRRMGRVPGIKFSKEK

[16] = biological target: T9, PDZRN3_2, Q9UPQ7
T9 sequence (Q9UPQ7 414-513, limits assumed, looked up): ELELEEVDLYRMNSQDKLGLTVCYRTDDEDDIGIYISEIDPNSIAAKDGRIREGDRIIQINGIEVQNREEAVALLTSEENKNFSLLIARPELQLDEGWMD

[17] = biological target: PREX1_1, Q8TCU6
Chain of PREX1_1, Q8TCU6 (Q8TCU6 608-718): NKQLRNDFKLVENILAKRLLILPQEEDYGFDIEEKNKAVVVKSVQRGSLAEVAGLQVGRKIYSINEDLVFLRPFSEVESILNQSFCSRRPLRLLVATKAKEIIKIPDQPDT

[18] = biological target: T10, PTPN4, P29074
T10 sequence (P29074 512-599, limits assumed, looked up): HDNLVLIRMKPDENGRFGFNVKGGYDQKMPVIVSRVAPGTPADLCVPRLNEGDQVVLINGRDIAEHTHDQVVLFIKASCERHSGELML

[19] = biological target: RIMS2, Q9UQ26
Chain of RIMS2, Q9UQ26 (Q9UQ26 637-758): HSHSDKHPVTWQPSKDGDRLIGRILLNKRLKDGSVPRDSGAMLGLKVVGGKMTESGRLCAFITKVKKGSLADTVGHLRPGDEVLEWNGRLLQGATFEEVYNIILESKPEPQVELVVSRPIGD

[20] = biological target: T11, SHANK3, Q9BYB0
T11 sequence (Q9BYB0 641-750, limits assumed, looked up): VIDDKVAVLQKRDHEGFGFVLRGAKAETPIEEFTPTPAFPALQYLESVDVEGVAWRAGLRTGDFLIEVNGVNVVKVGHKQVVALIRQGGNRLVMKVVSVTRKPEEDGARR

[21] = biological target: T12, SHROOM4, Q9ULL8
T12 sequence (Q9ULL8 5-102, limits assumed, looked up): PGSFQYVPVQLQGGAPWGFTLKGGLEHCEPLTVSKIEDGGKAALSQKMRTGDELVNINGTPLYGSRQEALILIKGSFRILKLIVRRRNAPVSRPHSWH

[22] = biological target: T13, TJP3_1, O95049
T13 sequence (O95049 6-103, limits assumed, looked up): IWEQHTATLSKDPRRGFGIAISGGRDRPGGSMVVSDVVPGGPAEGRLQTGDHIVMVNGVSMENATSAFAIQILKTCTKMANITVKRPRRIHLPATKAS

[23] = biological target: T14, USH1C_3, Q9Y6N9
T14 sequence (Q9Y6N9 447-547, limits assumed, looked up): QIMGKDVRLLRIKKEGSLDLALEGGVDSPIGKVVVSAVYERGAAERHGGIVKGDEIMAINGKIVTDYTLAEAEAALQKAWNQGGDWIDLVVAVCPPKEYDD

Chain of CNKSR3, Q6P9H4 (Q6P9H4 203-303): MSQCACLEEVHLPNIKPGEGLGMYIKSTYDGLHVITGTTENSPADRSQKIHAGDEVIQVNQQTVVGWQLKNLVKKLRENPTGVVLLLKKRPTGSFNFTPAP
Chain of IL16_2, Q14005 (Q14005 350-450): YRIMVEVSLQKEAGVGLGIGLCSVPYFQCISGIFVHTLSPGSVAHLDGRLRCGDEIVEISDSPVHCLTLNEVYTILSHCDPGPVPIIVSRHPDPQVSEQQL

- pKd [1]: below the threshold
- pKd [2]: below the threshold
- pKd [3]: below the threshold
- pKd [4]: 4.24
- pKd [5]: below the threshold
- pKd [6]: below the threshold
- pKd [7]: 4.39
- pKd [8]: below the threshold
- pKd [9]: 4.83
- pKd [10]: below the threshold
- pKd [11]: below the threshold
- pKd [12]: 4.46
- pKd [13]: below the threshold
- pKd [14]: 4.08
- pKd [15]: 4.25
- pKd [16]: below the threshold
- pKd [17]: below the threshold
- pKd [18]: 4.97
- pKd [19]: below the threshold
- pKd [20]: 5.54
- pKd [21]: below the threshold
- pKd [22]: below the threshold
- pKd [23]: below the threshold
Binder: STLTIFETAL [ABCC4, O15439]
